Test results from PMC11754664, “DNA binding and transposition activity of the Sleeping Beauty transposase: role of structural stability of the primary DNA-binding domain”.

B1: NS2 (dsDNA)
DNA 1: CGGTCTTTCCGTCTT
DNA 2: AAGACGGAAAGACCG
B2: Lo (dsDNA)
DNA 1: CAGTTGAAGTCGGAAGTTTACATACACTTAAG
DNA 2: CTTAAGTGTATGTAAACTTCCGACTTCAACTG
B3: Li (dsDNA)
DNA 1: TCCAGTGGGTCAGAAGTTTACATACACTAAGT
DNA 2: ACTTAGTGTATGTAAACTTCTGACCCACTGGA
B4: NS1 (dsDNA)
DNA 1: ACCTTCCTCCGCAATACTCCCCCAGGT
DNA 2: ACCTGGGGGAGTATTGCGGAGGAAGGT
B5: DR-core (dsDNA)
DNA 1: TCGGAAGTTTACATACAC
DNA 2: GTGTATGTAAACTTCCGA

Key:
SB100X-H19Y [1] = target: T1, SB100X-H19Y (synthetic Sleeping Beauty transposon, K14R;H19Y;K33A;R115H;R214D;K215A;E216V;N217Q;M243H;T314N); experiment: MST; nonspecific; Full-length MST: 50 mM Tris pH 7.5, 5 mM MgCl2, 300 mM NaCl, 2% glycerol, 50 mM Arg-Glu, 1 mM TCEP, 0.1% Triton X-100, 0.1 mg/ml BSA, 30 nM Cy5-DNA, room temp; conditions: protein: recombinant, tags: Ni-NTA purified
SB100X transposase [2] = target: T2, SB100X transposase (synthetic Sleeping Beauty transposon, K14R;K33A;R115H;R214D;K215A;E216V;N217Q;M243H;T314N); experiment: fluorescence anisotropy; Full-length MST: 50 mM Tris pH 7.5, 5 mM MgCl2, 300 mM NaCl, 2% glycerol, 50 mM Arg-Glu, 1 mM TCEP, 0.1% Triton X-100, 0.1 mg/ml BSA, 30 nM Cy5-DNA, room temp; conditions: protein: recombinant; tags: Ni-NTA purified; label: 5' Cy5 on forward strand (MST)
SB100X-H19Y [3] = target: T1, SB100X-H19Y; experiment: as above; conditions: protein: recombinant; tags: Ni-NTA purified; label: 5' Cy5 on forward strand (MST)
SB10-H19Y [4] = target: T3, SB10-H19Y (synthetic Sleeping Beauty transposon, H19Y); experiment: as above; conditions: protein: recombinant; tags: Ni-NTA purified; label: 5' Cy5 on forward strand (MST)
SB10 transposase [5] = target: T4, SB10 transposase (synthetic Sleeping Beauty transposon); experiment: as above; conditions: protein: recombinant; tags: Ni-NTA purified; label: 5' Cy5 on forward strand (MST)
[6] = target: T5, H19Y (PAI K14R/H19Y/K33A) (synthetic Sleeping Beauty transposon, UniProt PDB:6URS_1, K14R;H19Y;K33A); experiment: NMR; HSQC and PFG diffusion, pH 5.2, 35 C; monomeric complex; Full-length MST: 50 mM Tris pH 7.5, 5 mM MgCl2, 300 mM NaCl, 2% glycerol, 50 mM Arg-Glu, 1 mM TCEP, 0.1% Triton X-100, 0.1 mg/ml BSA, 30 nM Cy5-DNA, room temp; conditions: protein: recombinant; tags: Ni-NTA purified; label: 5' Cy5 on forward strand (MST)
SB100X transposase [7] = target: T2, SB100X transposase; experiment: MST; specific (first) transition; Full-length MST: 50 mM Tris pH 7.5, 5 mM MgCl2, 300 mM NaCl, 2% glycerol, 50 mM Arg-Glu, 1 mM TCEP, 0.1% Triton X-100, 0.1 mg/ml BSA, 30 nM Cy5-DNA, room temp; conditions: protein: recombinant; tags: Ni-NTA purified; label: 5' Cy5 on forward strand (MST)
SB10 transposase [8] = target: T4, SB10 transposase; experiment: as above; conditions: protein: recombinant; tags: Ni-NTA purified; label: 5' Cy5 on forward strand (MST)
SB100X-H19Y [9] = target: T1, SB100X-H19Y; experiment: MST; Full-length MST: 50 mM Tris pH 7.5, 5 mM MgCl2, 300 mM NaCl, 2% glycerol, 50 mM Arg-Glu, 1 mM TCEP, 0.1% Triton X-100, 0.1 mg/ml BSA, 30 nM Cy5-DNA, room temp; conditions: protein: recombinant; tags: Ni-NTA purified; label: 5' Cy5 on forward strand (MST)
SB10-H19Y [10] = target: T3, SB10-H19Y; experiment: as above; conditions: protein: recombinant; tags: Ni-NTA purified; label: 5' Cy5 on forward strand (MST)
SB100X transposase [11] = target: T2, SB100X transposase; experiment: fluorescence lifetime; Full-length MST: 50 mM Tris pH 7.5, 5 mM MgCl2, 300 mM NaCl, 2% glycerol, 50 mM Arg-Glu, 1 mM TCEP, 0.1% Triton X-100, 0.1 mg/ml BSA, 30 nM Cy5-DNA, room temp; conditions: protein: recombinant; tags: Ni-NTA purified; label: 5' Cy5 on forward strand (MST)
SB100X-H19Y [12] = target: T1, SB100X-H19Y; experiment: as above; conditions: protein: recombinant; tags: Ni-NTA purified; label: 5' Cy5 on forward strand (MST)
SB10-H19Y [13] = target: T3, SB10-H19Y; experiment: as above; conditions: protein: recombinant; tags: Ni-NTA purified; label: 5' Cy5 on forward strand (MST)
SB10 transposase [14] = target: T4, SB10 transposase; experiment: as above; conditions: protein: recombinant; tags: Ni-NTA purified; label: 5' Cy5 on forward strand (MST)
[15] = target: T5, H19Y (PAI K14R/H19Y/K33A); experiment: NMR; HSQC and PFG diffusion, pH 5.2, 35 C, 1:5; monomeric complex; Full-length MST: 50 mM Tris pH 7.5, 5 mM MgCl2, 300 mM NaCl, 2% glycerol, 50 mM Arg-Glu, 1 mM TCEP, 0.1% Triton X-100, 0.1 mg/ml BSA, 30 nM Cy5-DNA, room temp; conditions: protein: recombinant; tags: Ni-NTA purified; label: 5' Cy5 on forward strand (MST)
SB100X transposase [16] = target: T2, SB100X transposase; experiment: MST; nonspecific, monophasic; Full-length MST: 50 mM Tris pH 7.5, 5 mM MgCl2, 300 mM NaCl, 2% glycerol, 50 mM Arg-Glu, 1 mM TCEP, 0.1% Triton X-100, 0.1 mg/ml BSA, 30 nM Cy5-DNA, room temp; conditions: protein: recombinant; tags: Ni-NTA purified; label: Cy5 (5' forward strand)
SB10 transposase [17] = target: T4, SB10 transposase; experiment: as above; conditions: protein: recombinant; tags: Ni-NTA purified; label: Cy5 (5' forward strand)
[18] = target: T5, H19Y (PAI K14R/H19Y/K33A); experiment: NMR; HSQC, pH 5.2, 35 C, 1:4.5 protein:DNA; Full-length MST: 50 mM Tris pH 7.5, 5 mM MgCl2, 300 mM NaCl, 2% glycerol, 50 mM Arg-Glu, 1 mM TCEP, 0.1% Triton X-100, 0.1 mg/ml BSA, 30 nM Cy5-DNA, room temp; conditions: protein: recombinant; tags: Ni-NTA purified; label: 5' Cy5 on forward strand (MST)

Row | Binder | Kd (SB100X-H19Y [1]) [nM] | Kd (SB100X transposase [2]) [nM] | Kd (SB100X-H19Y [3]) [nM] | Kd (SB10-H19Y [4]) [nM] | Kd (SB10 transposase [5]) [nM] | binding result [6] | Kd (SB100X transposase [7]) [nM] | Kd (SB10 transposase [8]) [nM] | Kd (SB100X-H19Y [9]) [nM] | Kd (SB10-H19Y [10]) [nM] | Kd (SB100X transposase [11]) [nM] | Kd (SB100X-H19Y [12]) [nM] | Kd (SB10-H19Y [13]) [nM] | Kd (SB10 transposase [14]) [nM] | binding result [15] | Kd (SB100X-H19Y [1]; label: Cy5 (5' forward strand)) [nM] | Kd (SB100X transposase [16]) [nM] | Kd (SB10 transposase [17]) [nM] | binding result [18]
1 | B1 | 3430 ± 240 |  |  |  |  |  |  |  |  |  |  |  |  |  |  |  |  |  | 
2 | B2 |  | 13.7 ± 2.8 | 17.3 ± 2.2 | 9.73 ± 2.5 | 23.9 ± 2.8 | binds | 23 ± 1.9 | 16.6 ± 2.6 | 29.7 ± 3.5 | 11.6 ± 1.8 | 16 ± 2.6 | 20.6 ± 0.8 | 13.2 ± 1.1 | 23 ± 2.2 |  |  |  |  | 
3 | B3 |  | 27.6 ± 4.9 | 16 ± 3.2 | 18.2 ± 2.2 | 19.3 ± 2.8 |  | 23.6 ± 2.2 | 17.3 ± 1.2 | 10.3 ± 0.8 | 10.2 ± 0.9 | 25.9 ± 2.3 | 16.2 ± 2.3 | 16 ± 0.7 | 17.2 ± 0.8 | binds |  |  |  | 
4 | B4 |  |  |  |  |  |  |  |  |  |  |  |  |  |  |  | 2710 ± 210 | 560 ± 40 | 2600 ± 160 | 
5 | B5 |  | 35.1 ± 6.6 |  | 51.3 ± 8.3 | 37 ± 4 |  | 17.3 ± 1.1 | 25.3 ± 0.9 | 31.2 ± 11.1 | 31.1 ± 2.3 | 31.6 ± 3.4 |  | 45.4 ± 4.8 | 29.4 ± 2 |  |  |  |  | binds
